Assays:
[1] = system: human gastric cancer MKN-45 nude mouse subcutaneous xenograft tumor model; assay: In vivo efficacy, MKN-45 xenograft tumor model; set-up: species or system Balb/c Nude mice; conditions: 3 mg/kg single i.p. (D0)
Protocol: Female Balb/c Nude mice were subcutaneously inoculated with 5 × 10^6 MKN-45 cells to establish a subcutaneous tumor model. […] Each group was given a single (D0) intraperitoneal injection. The body weight and tumor size of the animals were measured twice weekly during the experiment.

[2] = system: human lung cancer EBC-1 cells; assay: Endocytosis by c-Met-positive cells (flow cytometry); format: cell-based; conditions: 20 nM
Protocol: Teli-VcMMAE (namely ABBV-399, in which the toxin is MMAE) and its naked antibody ABT-700 were prepared in-house based on the telisotuzumab vedotin structure disclosed on page 319 of WHO Drug Information, Vol. 30, No. 2, 2016.
The cell density was adjusted to 2 × 10^6 cells/mL using a FACS buffer (prepared with PBS 1×, pH 7.2, and 2% FBS). The suspension was added to a 96-well round-bottom plate at 50 µL/well. Groups were set as follows: endocytosis for 0 h, endocytosis for 0.5 h, endocytosis for 2 h, endocytosis for 4 h, and endocytosis for 24 h. A 40 nM (2×) dilution of an antibody or antibody-drug conjugate was added at 50 µL/well. […] A final concentration of 20 nM was achieved. The plate was incubated at 4 °C for 60 min. After the incubation, the plate was centrifuged at 400 g for 5 min, the supernatant was discarded, and the plate was washed twice with 200 µL of FACS Buffer per well. The cells were resuspended in a culture medium and subjected to 0 h, 0.5 h, 2 h, 4 h, or 24 h of endocytosis in an incubator (37 °C, 5% CO2). After different endocytosis periods, the cells were digested with TrypLE™ Express Enzyme to form a single cell suspension. After 1 wash with 200 µL of FACS buffer, a secondary antibody (Alexa Fluor® 647 AffiniPure Mouse Anti-Human IgG(H+L), 1:500, Jackson, 209-605-008) diluted in FACS buffer was added, and the plate was incubated in a dark place at 4 °C for 30 min. The plate was centrifuged at 400 g for 5 min, the supernatant was discarded, and the plate was washed twice with 200 µL of FACS buffer per well. The cells were resuspended in 50 µL of FACS buffer, and 50 µL of 4% paraformaldehyde was then added for fixation. After thorough mixing, the plate was left to stand at 4 °C in a dark place. After all samples were collected, Alexa Fluor® 647 fluorescence signals were detected using a flow cytometer. Data were analyzed using Flowjo software, and gMFI values were calculated. Endocytosis ratio = (0-h endocytosis gMFI - n-h endocytosis gMFI)/0-h endocytosis gMFI. Table 4. Evaluation of endocytosis performance

B1: Teli-VcMMAE: ABBV-399, in which the toxin is MMAE; prepared in-house based on the telisotuzumab vedotin structure (conjugate, chains of the INN, looked up)
VH: QVQLVQSGAEVKKPGASVKVSCKASGYIFTAYTMHWVRQAPGQGLEWMGWIKPNNGLANYAQKFQGRVTMTRDTSISTAYMELSRLRSDDTAVYYCARSEITTEFDYWGQGTLVTVSS
VL: DIVMTQSPDSLAVSLGERATINCKSSESVDSYANSFLHWYQQKPGQPPKLLIYRASTRESGVPDRFSGSGSGTDFTLTISSLQAEDVAVYYCQQSKEDPLTFGGGTKVEIK
modifications: vc-MMAE payload
notes: ABBV-399, in which the toxin is MMAE; prepared in-house based on the telisotuzumab vedotin structure
For B1, the “Mean tumor volume (mm^3, mean ± SEM) D0” value ([1]; D0 (baseline at grouping)) was 117± 3 mm^3, the “Mean tumor volume (mm^3, mean ± SEM) D23” value ([1]; D23) was 1354 ± 327 mm^3 and the “TGI (%) D23” value ([1]; D23) was 40.28%. For the same molecule, the Endocytosis ratio% ([2]; 0 h) was 0.000%, the Endocytosis ratio% ([2]; 0.5 h) was 4.361% and the Endocytosis ratio% ([2]; 2 h) was 31.734%. The Endocytosis ratio% ([2]; 24 h) was 97.339%.

Source: patent EP4751739A1, “ANTIBODY-DRUG CONJUGATE TARGETING C-MET AND MEDICAL USE THEREOF” (Jiangsu Hengrui Pharmaceuticals Co., Ltd., priority 2023, dated 2025)
